# According to US7803377B2, “Anti-DLL4 antibodies and methods using same” (Genentech, Inc., priority 2006, dated 2010):
# Columns and labels:
# [1] = test system: human melanoma MDA-MB-435; assay: Tumor model MDA-MB-435 (mammary fat pad); type: in vivo, mouse; conditions: treatment started 14 days post tumor cell injection
# Method: Tumor models. Beige nude female mice of 8- to 10-week-old were used. To obtain subcutaneous tumors, mice were injected with 0.1 ml cell suspension containing 50% matrigel (BD Bioscience) into the right posterior flank. 5×10^6 human colon cancer HM7 cells, 10×10^6 human colon carcinoma Colo205 cells, 10×10^6 human lung carcinoma Calu6 cells, 10×10^6 human lung carcinoma MV-522 cells, 10×10^6 mouse leukemia WEHI-3 cells, 10×10^6 mouse lymphoma EL4 cells, 10×10^6 human ovarian cancer SK-OV-3 X1 cells, 10×06 mouse lung cancer LL2 cells, 10×10^6 leukemia/lymphoma EL4 cells, or 10×10^6 non-small lung cancer H1299 cells were injected into each mouse. For human melanoma MDA-MB-435 model, mice were injected into the mammary fat pad with 0.1 ml cell (5×10^6) suspension containing 50% matrigel. […] For the following tumor models, each test mouse received a subcutaneous tumor fragment (1 mm^3) implanted in the right flank: non-small lung cancer SKMES-1, human breast cancer MX-1, human colorectal cancer SW620 and human adenocarcinoma LS174T. The tumor growth was quantitated by caliper measurements. Tumor volume (mm^3) was determined by measuring the length (l) and width (w) and calculating the volume (V=lw2/2). 10 to 15 animals were included in each group. Statistical comparison of treatment groups was performed using two-tailed Student's t-test. […]
# DLL4 = DLL4 (Homo sapiens, UniProt Q9NR61); assay: ELISA binding to coated purified recombinant proteins; conditions: plates coated with recombinant protein 1 μg/ml
# Method: (§1) 96-well Nunc Maxisorp plates were coated with purified recombinant proteins as indicated (1 μg/ml). […] Bound antibodies were detected with anti-human antibody HRP conjugate using TMB as substrate and OD 450 nm absorbance measurement. Anti-HER2 and recombinant ErbB2-ECD were used as assay control (FIG. 11b).
# DLL1 = target: T1, DLL1 (Homo sapiens, UniProt O00548); assay: as above; conditions: plates coated with recombinant protein 1 μg/ml
# T1 sequence (O00548 18-723): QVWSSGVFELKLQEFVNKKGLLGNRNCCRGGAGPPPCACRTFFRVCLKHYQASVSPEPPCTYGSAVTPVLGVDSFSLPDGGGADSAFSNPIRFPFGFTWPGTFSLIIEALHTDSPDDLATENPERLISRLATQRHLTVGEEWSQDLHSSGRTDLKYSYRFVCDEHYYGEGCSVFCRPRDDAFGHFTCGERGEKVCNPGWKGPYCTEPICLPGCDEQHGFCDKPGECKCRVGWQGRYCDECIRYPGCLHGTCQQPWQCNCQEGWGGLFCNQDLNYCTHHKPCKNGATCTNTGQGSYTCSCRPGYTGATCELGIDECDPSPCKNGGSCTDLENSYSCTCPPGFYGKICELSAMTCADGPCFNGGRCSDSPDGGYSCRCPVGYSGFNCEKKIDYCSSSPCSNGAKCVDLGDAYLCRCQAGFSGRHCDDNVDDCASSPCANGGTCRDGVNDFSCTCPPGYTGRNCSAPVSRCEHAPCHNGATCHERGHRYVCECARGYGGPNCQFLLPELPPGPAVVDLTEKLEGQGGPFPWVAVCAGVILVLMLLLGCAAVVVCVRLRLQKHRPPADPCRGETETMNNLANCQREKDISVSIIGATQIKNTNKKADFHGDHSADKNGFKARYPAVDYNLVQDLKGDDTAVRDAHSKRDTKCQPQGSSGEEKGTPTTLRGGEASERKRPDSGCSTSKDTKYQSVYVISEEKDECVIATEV
# Method: as §1
# Jag1 = Jag1 (Homo sapiens, UniProt P78504); assay: as above; conditions: plates coated with recombinant protein 1 μg/ml
# Method: as §1
substance,measurement,setting,value
"YW26.82: affinity matured anti-DLL4 monoclonal antibody; HVR-H1/H2/H3 SEQ ID NO:1, 8, 9; HVR-L1/L2/L3 SEQ ID NO:10, 11, 18",tumor growth,[1],inhibited tumors growing in mouse mammary fat pads
same,binding by ELISA,DLL4,bound
same,binding by ELISA,DLL1,did not delectably bind
same,binding by ELISA,Jag1,did not delectably bind
